Experimental data taken from patent publication US20200165312A1, “COSMETIC COMPOSITION FOR IMPROVING SKIN CONDITIONS COMPRISING FUSION PROTEIN INCLUDING SKIN PENETRATION ENHANCING PEPTIDE” (LG HOUSEHOLD & HEALTH CARE LTD., priority 2017, published 2020).

Legend:
[1] = Skin penetrability of growth factor fusion proteins (Franz glass cell, ELISA); assay type: in vitro ADME, porcine; settings: for Penetrated amount (%): 2 μg, 16 hours
Method: (§1) Specifically, porcine skin (thickness: 0.7 mm, Medikinetics) was placed between upper and lower ends of Franz glass cell (standard diameter: 9 mm, Receiver 5 mL, Permegear), and TBS (50 mM Tris pH 7.5, 150 mM NaCl) including 1% BSA and 0.01% Tween 20 was prepared. Then, 500 μL of the TBS was applied to the upper end of the glass cell (Donor chamber), and 5 mL of the TBS was applied to the lower end of the glass cell, (Receiver chamber). Subsequently, 2 μg of PDGFa or T-PDGFa was applied to the upper end of the glass cell, followed by reaction for 16 hours. Then, a concentration of PDGFa or T-PDGFa was quantitatively analyzed using the ELISA kit (R&D Systems), and a relative amount of T-PDGFa to PDGFa was calculated as a penetrated amount (Table 7).
Specifically, porcine skin (thickness: 0.7 mm, Medikinetics) was placed between upper and lower ends of Franz glass cell (standard diameter: 9 mm, Receiver 5 mL, Permegear), and TBS (50 mM Tris pH 7.5, 150 mM NaCl) including 1% BSA and 0.01% Tween 20 was prepared. Then, 500 μL of the TBS was applied to the upper end of the glass cell (Donor chamber), and 5 mL of the TBS was applied to the lower end of the glass cell, (Receiver chamber).
as §1, with “IGF-1” for “PDGFa”, “T-IGF-1” for “T-PDGFa”, “16).” for “7).”
as §1, with “KGF” for “PDGFa”, “T-KGF” for “T-PDGFa”, “20).” for “7).”
as §1, with “Tβ4” for “PDGFa”, “T-Tβ4” for “T-PDGFa”, “24).” for “7).”

[2] = Skin retentivity of growth factor fusion proteins (porcine skin disrupted, ELISA); assay type: in vitro ADME; settings: for Remaining amount (%): skin after 16 hours penetration test
Method: (§2) Specifically, the porcine skin remained after the experiment of Example 3-2-4 was recovered, frozen in liquid nitrogen, and disrupted. An amount of PDGFa or T-PDGFa contained therein was quantitatively analyzed using the ELISA kit (R&D Systems). In addition, a relative amount of T-PDGFa to PDGFa was calculated as a remaining amount (Table 8).
Specifically, the porcine skin remained after the experiment of Example 3-3-4 was recovered, frozen in liquid nitrogen, and disrupted. An amount of VEGF or T-VEGF contained therein was quantitatively analyzed using the ELISA kit (R&D Systems).
as §2, with “3-4-4” for “3-2-4”, “IGF-1” for “PDGFa”, “T-IGF-1” for “T-PDGFa”, “17).” for “8).”
as §2, with “3-5-3” for “3-2-4”, “KGF” for “PDGFa”, “T-KGF” for “T-PDGFa”, “21).” for “8).”
as §2, with “3-6-3” for “3-2-4”, “Tβ4” for “PDGFa”, “T-Tβ4” for “T-PDGFa”, “25).” for “8).”

For “IGF-1: insulin-like growth factor-1 having an amino acid sequence of SEQ ID NO: 41”, which “Penetrated amount (%)” value ([1]; relative to IGF-1) is on record?
Its value is 100 ± 14%.

And the “Remaining amount (%)” value ([2]; relative to IGF-1)?
The value was 100 ± 28%.

What does the source list for “PDGFa: platelet-derived growth factor subunit a having an amino acid sequence of SEQ ID NO: 35”?
Penetrated amount (%) ([1]; relative to PDGFa): 100 ± 29%; Remaining amount (%) ([2]; relative to PDGFa): 100 ± 20%

Which “Penetrated amount (%)” value ([1]; relative to Tβ4) does the source give for “T-Tβ4: SEQ ID NO: 1 peptide C-terminal linked to N-terminal of Tβ4 via GG linker (NGSLNTHLAPILGGSDKPDMAEIEKFDKSKLKKTETQEKNPLPSKETIEQEKQAGES; Synthetic Fusion protein of T-T beta 4)” here?
The value was 310 ± 28%.

And the “skin penetrability compared with the unfused protein” value ([1]; summary of Tables 7, 12, 16, 20, 24)?
Its value is “about three times higher”.

And the “Remaining amount (%)” value ([2]; relative to Tβ4)?
Its value is 9,600 ± 450%.

And the “skin retentivity higher than the unfused protein” value ([2]; summary of Tables 8, 13, 17, 21, 25)?
The value was “about 100 times”.

What does the source list for “Tβ4: thymosin beta 4 having an amino acid sequence of SEQ ID NO: 47”?
Penetrated amount (%) ([1]; relative to Tβ4): 100 ± 21%; Remaining amount (%) ([2]; relative to Tβ4): 100 ± 17%
